Drawing on patent publication US20220331363A1, this text covers EC50 for one substance.

The EC50 is the concentration needed to bring the measured effect to its halfway point. A low value points to a more potent agent.

The target of this test is human Burkitt's lymphoma cell Daudi. Description: flow cytometry (FACS) on Daudi cells, which Example 3 says do not express BCMA. A general note: A flow cytometer gives signals particle by particle.

On to “murine anti-BCMA antibody C11D5.3 (scFv), reference antibody”, for which the EC50 came out at 58.2 µg/mL.
